Paper PMC9482650, “Quantitative fragmentomics allow affinity mapping of interactomes” (Nature Communications, 2022)

T1: MPP6, Q9NZW5
T1 sequence (Q9NZW5 125-219, limits assumed, looked up): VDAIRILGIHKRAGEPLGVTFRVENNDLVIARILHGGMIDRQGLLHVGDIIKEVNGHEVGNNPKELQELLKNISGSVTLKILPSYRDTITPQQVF

T2: RAPGEF6, Q8TEU7
T2 sequence (Q8TEU7 525-625, limits assumed, looked up): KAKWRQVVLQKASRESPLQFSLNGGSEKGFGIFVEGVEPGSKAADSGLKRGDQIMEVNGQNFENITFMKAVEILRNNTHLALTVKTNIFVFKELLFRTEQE

T3: MPDZ_5, O75970
T3 sequence (O75970 695-796, limits assumed, looked up): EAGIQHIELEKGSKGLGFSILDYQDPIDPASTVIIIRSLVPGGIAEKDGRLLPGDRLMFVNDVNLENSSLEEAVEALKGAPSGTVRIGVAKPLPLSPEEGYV

T4: MPDZ_10, O75970
T4 sequence (O75970 1624-1722, limits assumed, looked up): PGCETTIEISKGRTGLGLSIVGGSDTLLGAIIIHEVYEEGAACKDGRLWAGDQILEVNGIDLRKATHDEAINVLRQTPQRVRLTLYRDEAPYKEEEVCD

T5: RADIL, Q96JH8
T5 sequence (Q96JH8 971-1071, limits assumed, looked up): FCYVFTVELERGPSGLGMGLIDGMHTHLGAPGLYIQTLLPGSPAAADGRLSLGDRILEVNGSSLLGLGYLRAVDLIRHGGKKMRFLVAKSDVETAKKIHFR

T6: MPP7, Q5T2T1
T6 sequence (Q5T2T1 134-230, limits assumed, looked up): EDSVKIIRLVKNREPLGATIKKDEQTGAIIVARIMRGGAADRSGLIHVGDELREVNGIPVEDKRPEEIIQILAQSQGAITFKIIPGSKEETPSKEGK

T7: GRIP1_7, Q9Y3R0
T7 sequence (Q9Y3R0 999-1096, limits assumed, looked up): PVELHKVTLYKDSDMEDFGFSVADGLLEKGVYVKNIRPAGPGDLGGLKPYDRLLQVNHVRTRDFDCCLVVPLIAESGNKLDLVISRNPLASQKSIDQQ

T8: GRIP1_2, Q9Y3R0
T8 sequence (Q9Y3R0 145-248, limits assumed, looked up): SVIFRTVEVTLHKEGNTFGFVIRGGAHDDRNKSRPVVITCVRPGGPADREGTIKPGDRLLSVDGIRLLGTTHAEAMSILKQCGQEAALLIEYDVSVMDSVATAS

T9: DFNB31_2, Q9P202
T9 sequence (Q9P202 274-371, limits assumed, looked up): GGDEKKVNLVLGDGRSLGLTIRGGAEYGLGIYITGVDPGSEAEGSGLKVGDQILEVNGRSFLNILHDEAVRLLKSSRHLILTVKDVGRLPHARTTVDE

T10: LRRC7, Q96NW7
T10 sequence (Q96NW7 1440-1537, limits assumed, looked up): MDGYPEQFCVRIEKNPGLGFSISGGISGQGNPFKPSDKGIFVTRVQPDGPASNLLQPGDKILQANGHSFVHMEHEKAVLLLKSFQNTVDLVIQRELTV


molecular target: IL16_1, Q14005; experiment: holdup assay; parameters: key: below the threshold = too weak to quantify, mostly under pKd 3.1 to 4; settings: plain residues with an end cap or a label only (N-terminal biotin on a linker: ado-ado)
Sequence (Q14005 210-306): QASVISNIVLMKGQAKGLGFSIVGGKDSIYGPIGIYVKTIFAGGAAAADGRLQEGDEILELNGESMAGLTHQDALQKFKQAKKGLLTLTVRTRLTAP

Row | pKd | Binder
1 | below the threshold | QKASRNESTF [POLR1D, P0DPB6]
2 | 3.48 | KIEDVEITLV [FCHSD2, O94868]

molecular target: T1, MPP6, Q9NZW5; experiment: holdup assay; parameters: key: below the threshold = too weak to quantify, mostly under pKd 3.1 to 4; settings: plain residues with an end cap or a label only (N-terminal biotin on a linker: ado-ado)

Row | pKd | Binder
3 | below the threshold | QKASRNESTF [POLR1D, P0DPB6]
4 | 3.74 | KIEDVEITLV [FCHSD2, O94868]

molecular target: GRIP2_6, Q9C0E4; experiment: holdup assay; parameters: key: below the threshold = too weak to quantify, mostly under pKd 3.1 to 4; settings: plain residues with an end cap or a label only (N-terminal biotin on a linker: ado-ado)
Sequence (Q9C0E4 648-740): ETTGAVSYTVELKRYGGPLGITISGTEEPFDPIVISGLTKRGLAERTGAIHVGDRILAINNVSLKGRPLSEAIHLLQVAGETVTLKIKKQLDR

Row | pKd | Binder
5 | below the threshold | QKASRNESTF [POLR1D, P0DPB6]
6 | below the threshold | KIEDVEITLV [FCHSD2, O94868]

molecular target: NHERF4_1, Q86UT5-2; experiment: holdup assay; parameters: key: below the threshold = too weak to quantify, mostly under pKd 3.1 to 4; settings: plain residues with an end cap or a label only (N-terminal biotin on a linker: ado-ado)
Sequence (Q86UT5 other isoform, or with tags, fused parts or gaps): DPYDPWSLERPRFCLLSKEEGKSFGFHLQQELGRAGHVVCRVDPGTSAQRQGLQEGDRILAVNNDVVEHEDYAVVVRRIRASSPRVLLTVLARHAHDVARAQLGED

Row | pKd | Binder
7 | below the threshold | QKASRNESTF [POLR1D, P0DPB6]
8 | 3.73 | KIEDVEITLV [FCHSD2, O94868]

molecular target: MAGI3_2, Q5TCQ9; experiment: holdup assay; parameters: key: below the threshold = too weak to quantify, mostly under pKd 3.1 to 4; settings: plain residues with an end cap or a label only (N-terminal biotin on a linker: ado-ado)
Sequence (Q5TCQ9 398-503): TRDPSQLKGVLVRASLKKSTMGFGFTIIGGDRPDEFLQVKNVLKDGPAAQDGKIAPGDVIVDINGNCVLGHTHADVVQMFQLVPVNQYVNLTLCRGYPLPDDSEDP

Row | pKd | Binder
9 | below the threshold | QKASRNESTF [POLR1D, P0DPB6]
10 | 4.05 | KIEDVEITLV [FCHSD2, O94868]

molecular target: T2, RAPGEF6, Q8TEU7; experiment: holdup assay; parameters: key: below the threshold = too weak to quantify, mostly under pKd 3.1 to 4; settings: plain residues with an end cap or a label only (N-terminal biotin on a linker: ado-ado)

Row | pKd | Binder
11 | below the threshold | QKASRNESTF [POLR1D, P0DPB6]
12 | below the threshold | KIEDVEITLV [FCHSD2, O94868]

molecular target: FRMPD4, Q14CM0; experiment: holdup assay; parameters: key: below the threshold = too weak to quantify, mostly under pKd 3.1 to 4; settings: plain residues with an end cap or a label only (N-terminal biotin on a linker: ado-ado)
Sequence (Q14CM0 67-160): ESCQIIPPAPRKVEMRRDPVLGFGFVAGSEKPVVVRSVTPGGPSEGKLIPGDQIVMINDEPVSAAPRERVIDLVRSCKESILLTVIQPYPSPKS

Row | pKd | Binder
13 | below the threshold | QKASRNESTF [POLR1D, P0DPB6]
14 | below the threshold | KIEDVEITLV [FCHSD2, O94868]

molecular target: GIPC2, Q8TF65; experiment: holdup assay; parameters: key: below the threshold = too weak to quantify, mostly under pKd 3.1 to 4; settings: plain residues with an end cap or a label only (N-terminal biotin on a linker: ado-ado)
Sequence (Q8TF65 112-203): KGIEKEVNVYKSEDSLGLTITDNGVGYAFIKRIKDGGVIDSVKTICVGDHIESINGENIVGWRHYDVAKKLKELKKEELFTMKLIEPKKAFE

Row | pKd | Binder
15 | below the threshold | QKASRNESTF [POLR1D, P0DPB6]
16 | below the threshold | KIEDVEITLV [FCHSD2, O94868]

molecular target: Inadl_4, Q8NI35; experiment: holdup assay; parameters: key: below the threshold = too weak to quantify, mostly under pKd 3.1 to 4; settings: plain residues with an end cap or a label only (N-terminal biotin on a linker: ado-ado)
Sequence (Q8NI35 547-651): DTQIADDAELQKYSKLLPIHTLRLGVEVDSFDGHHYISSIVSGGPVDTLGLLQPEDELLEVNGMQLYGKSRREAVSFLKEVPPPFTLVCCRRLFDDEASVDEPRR

Row | pKd | Binder
17 | below the threshold | QKASRNESTF [POLR1D, P0DPB6]
18 | below the threshold | KIEDVEITLV [FCHSD2, O94868]

molecular target: T3, MPDZ_5, O75970; experiment: holdup assay; parameters: key: below the threshold = too weak to quantify, mostly under pKd 3.1 to 4; settings: plain residues with an end cap or a label only (N-terminal biotin on a linker: ado-ado)

Row | pKd | Binder
19 | below the threshold | QKASRNESTF [POLR1D, P0DPB6]
20 | below the threshold | KIEDVEITLV [FCHSD2, O94868]

molecular target: T4, MPDZ_10, O75970; experiment: holdup assay; parameters: key: below the threshold = too weak to quantify, mostly under pKd 3.1 to 4; settings: plain residues with an end cap or a label only (N-terminal biotin on a linker: ado-ado)

Row | pKd | Binder
21 | below the threshold | QKASRNESTF [POLR1D, P0DPB6]
22 | 3.49 | KIEDVEITLV [FCHSD2, O94868]

molecular target: T5, RADIL, Q96JH8; experiment: holdup assay; parameters: key: below the threshold = too weak to quantify, mostly under pKd 3.1 to 4; settings: plain residues with an end cap or a label only (N-terminal biotin on a linker: ado-ado)

Row | pKd | Binder
23 | below the threshold | QKASRNESTF [POLR1D, P0DPB6]
24 | 5.03 | KIEDVEITLV [FCHSD2, O94868]

molecular target: PDZRN4_1, Q6ZMN7; experiment: holdup assay; parameters: key: below the threshold = too weak to quantify, mostly under pKd 3.1 to 4; settings: plain residues with an end cap or a label only (N-terminal biotin on a linker: ado-ado)
Sequence (Q6ZMN7 213-318): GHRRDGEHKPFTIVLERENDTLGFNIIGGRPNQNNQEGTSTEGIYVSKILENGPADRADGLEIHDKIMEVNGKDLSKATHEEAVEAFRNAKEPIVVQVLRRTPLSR

Row | pKd | Binder
25 | below the threshold | QKASRNESTF [POLR1D, P0DPB6]
26 | 3.64 | KIEDVEITLV [FCHSD2, O94868]

molecular target: T6, MPP7, Q5T2T1; experiment: holdup assay; parameters: key: below the threshold = too weak to quantify, mostly under pKd 3.1 to 4; settings: plain residues with an end cap or a label only (N-terminal biotin on a linker: ado-ado)

Row | pKd | Binder
27 | below the threshold | QKASRNESTF [POLR1D, P0DPB6]
28 | below the threshold | KIEDVEITLV [FCHSD2, O94868]

molecular target: T7, GRIP1_7, Q9Y3R0; experiment: holdup assay; parameters: key: below the threshold = too weak to quantify, mostly under pKd 3.1 to 4; settings: plain residues with an end cap or a label only (N-terminal biotin on a linker: ado-ado)

Row | pKd | Binder
29 | below the threshold | QKASRNESTF [POLR1D, P0DPB6]
30 | below the threshold | KIEDVEITLV [FCHSD2, O94868]

molecular target: DLG4_3, P78352; experiment: holdup assay; parameters: key: below the threshold = too weak to quantify, mostly under pKd 3.1 to 4; settings: plain residues with an end cap or a label only (N-terminal biotin on a linker: ado-ado)
Sequence (P78352 306-403): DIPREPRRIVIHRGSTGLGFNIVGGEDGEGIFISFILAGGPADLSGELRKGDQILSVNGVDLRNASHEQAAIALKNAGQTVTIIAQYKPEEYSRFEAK

Row | pKd | Binder
31 | below the threshold | QKASRNESTF [POLR1D, P0DPB6]
32 | below the threshold | KIEDVEITLV [FCHSD2, O94868]

molecular target: HTRA2, O43464; experiment: holdup assay; parameters: key: below the threshold = too weak to quantify, mostly under pKd 3.1 to 4; settings: plain residues with an end cap or a label only (N-terminal biotin on a linker: ado-ado)
Sequence (O43464 355-458): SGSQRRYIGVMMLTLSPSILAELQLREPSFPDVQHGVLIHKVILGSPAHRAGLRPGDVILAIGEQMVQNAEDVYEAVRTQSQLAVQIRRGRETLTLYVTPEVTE

Row | pKd | Binder
33 | below the threshold | QKASRNESTF [POLR1D, P0DPB6]
34 | 3.93 | KIEDVEITLV [FCHSD2, O94868]

molecular target: LDB3, O75112; experiment: holdup assay; parameters: key: below the threshold = too weak to quantify, mostly under pKd 3.1 to 4; settings: plain residues with an end cap or a label only (N-terminal biotin on a linker: ado-ado)
Sequence (O75112 1-94): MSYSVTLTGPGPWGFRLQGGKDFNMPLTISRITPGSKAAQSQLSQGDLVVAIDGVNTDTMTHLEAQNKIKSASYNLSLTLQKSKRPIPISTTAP

Row | pKd | Binder
35 | below the threshold | QKASRNESTF [POLR1D, P0DPB6]
36 | below the threshold | KIEDVEITLV [FCHSD2, O94868]

molecular target: T8, GRIP1_2, Q9Y3R0; experiment: holdup assay; parameters: key: below the threshold = too weak to quantify, mostly under pKd 3.1 to 4; settings: plain residues with an end cap or a label only (N-terminal biotin on a linker: ado-ado)

Row | pKd | Binder
37 | below the threshold | QKASRNESTF [POLR1D, P0DPB6]
38 | below the threshold | KIEDVEITLV [FCHSD2, O94868]

molecular target: CASK, O14936; experiment: holdup assay; parameters: key: below the threshold = too weak to quantify, mostly under pKd 3.1 to 4; settings: plain residues with an end cap or a label only (N-terminal biotin on a linker: ado-ado)
Sequence (O14936 487-570): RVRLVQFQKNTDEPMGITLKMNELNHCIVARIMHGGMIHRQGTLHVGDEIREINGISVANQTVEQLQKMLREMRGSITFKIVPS

Row | pKd | Binder
39 | below the threshold | QKASRNESTF [POLR1D, P0DPB6]
40 | below the threshold | KIEDVEITLV [FCHSD2, O94868]

molecular target: T9, DFNB31_2, Q9P202; experiment: holdup assay; parameters: key: below the threshold = too weak to quantify, mostly under pKd 3.1 to 4; settings: plain residues with an end cap or a label only (N-terminal biotin on a linker: ado-ado)

Row | pKd | Binder
41 | below the threshold | QKASRNESTF [POLR1D, P0DPB6]
42 | below the threshold | KIEDVEITLV [FCHSD2, O94868]

molecular target: FRMPD2_3, Q68DX3; experiment: holdup assay; parameters: key: below the threshold = too weak to quantify, mostly under pKd 3.1 to 4; settings: plain residues with an end cap or a label only (N-terminal biotin on a linker: ado-ado)
Sequence (Q68DX3 1073-1166): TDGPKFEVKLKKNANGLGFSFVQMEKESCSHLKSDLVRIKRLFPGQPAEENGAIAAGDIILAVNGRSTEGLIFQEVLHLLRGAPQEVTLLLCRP

Row | pKd | Binder
43 | below the threshold | QKASRNESTF [POLR1D, P0DPB6]
44 | below the threshold | KIEDVEITLV [FCHSD2, O94868]

molecular target: MAGI2_3, Q86UL8; experiment: holdup assay; parameters: key: below the threshold = too weak to quantify, mostly under pKd 3.1 to 4; settings: plain residues with an end cap or a label only (N-terminal biotin on a linker: ado-ado)
Sequence (Q86UL8 600-682): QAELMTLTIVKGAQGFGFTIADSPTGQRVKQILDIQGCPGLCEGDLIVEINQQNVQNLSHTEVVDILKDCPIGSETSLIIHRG

Row | pKd | Binder
45 | below the threshold | QKASRNESTF [POLR1D, P0DPB6]
46 | 4.52 | KIEDVEITLV [FCHSD2, O94868]

molecular target: PTPN3, P26045; experiment: holdup assay; parameters: key: below the threshold = too weak to quantify, mostly under pKd 3.1 to 4; settings: plain residues with an end cap or a label only (N-terminal biotin on a linker: ado-ado)
Sequence (P26045 505-587): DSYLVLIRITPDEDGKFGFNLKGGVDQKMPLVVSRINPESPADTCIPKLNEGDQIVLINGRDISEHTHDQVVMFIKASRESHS

Row | pKd | Binder
47 | 4.62 | QKASRNESTF [POLR1D, P0DPB6]
48 | 3.5 | KIEDVEITLV [FCHSD2, O94868]

molecular target: Inadl_2, Q8NI35; experiment: holdup assay; parameters: key: below the threshold = too weak to quantify, mostly under pKd 3.1 to 4; settings: plain residues with an end cap or a label only (N-terminal biotin on a linker: ado-ado)
Sequence (Q8NI35 238-335): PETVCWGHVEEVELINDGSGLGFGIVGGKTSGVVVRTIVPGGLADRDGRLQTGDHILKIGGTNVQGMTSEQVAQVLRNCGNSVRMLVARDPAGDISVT

Row | pKd | Binder
49 | below the threshold | QKASRNESTF [POLR1D, P0DPB6]
50 | 4.3 | KIEDVEITLV [FCHSD2, O94868]

molecular target: MAST1, Q9Y2H9; experiment: holdup assay; parameters: key: below the threshold = too weak to quantify, mostly under pKd 3.1 to 4; settings: plain residues with an end cap or a label only (N-terminal biotin on a linker: ado-ado)
Sequence (Q9Y2H9 962-1065): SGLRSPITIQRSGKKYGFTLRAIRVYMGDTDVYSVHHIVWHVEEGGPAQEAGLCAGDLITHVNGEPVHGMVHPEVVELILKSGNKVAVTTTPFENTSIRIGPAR

Row | pKd | Binder
51 | 4.08 | QKASRNESTF [POLR1D, P0DPB6]
52 | 4.16 | KIEDVEITLV [FCHSD2, O94868]

molecular target: MAGI2_5, Q86UL8; experiment: holdup assay; parameters: key: below the threshold = too weak to quantify, mostly under pKd 3.1 to 4; settings: plain residues with an end cap or a label only (N-terminal biotin on a linker: ado-ado)
Sequence (Q86UL8 915-1017): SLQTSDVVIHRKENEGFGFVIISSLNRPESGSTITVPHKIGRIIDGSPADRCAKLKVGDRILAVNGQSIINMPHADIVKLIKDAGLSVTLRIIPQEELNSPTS

Row | pKd | Binder
53 | below the threshold | QKASRNESTF [POLR1D, P0DPB6]
54 | 5.47 | KIEDVEITLV [FCHSD2, O94868]

molecular target: T10, LRRC7, Q96NW7; experiment: holdup assay; parameters: key: below the threshold = too weak to quantify, mostly under pKd 3.1 to 4; settings: plain residues with an end cap or a label only (N-terminal biotin on a linker: ado-ado)

Row | pKd | Binder
55 | below the threshold | QKASRNESTF [POLR1D, P0DPB6]
56 | below the threshold | KIEDVEITLV [FCHSD2, O94868]
